Target: SARS-CoV-2 S protein receptor-binding domain (R319-F541) (SARS-CoV-2, UniProt P0DTC2)
Test: ELISA
Settings: both partners purified

B1: sdAb39 (VHH)
VHH: EVQLVESGGGLVQPGGSLRLSCAASGNTSTRHPMSWVRQAPGKGLELVASIGRGEITYYADSVKGRFTISRDNSKNTLYLQMNSLRAEDTAVYYCAAFVDFLSRHNSRRPYPHGYWGQGTLVTVSS
  EC50: 4 nM

B2: sdAb42 (VHH)
VHH: EVQLVESGGGLVQPGGSLRLSCAASGNTSTRHPMSWVRQAPGKGLELVASIGRGEITYYADSVKGRFTISRDNSKNTLYLQMNSLRAEDTAVYYCAVDAVFGGRHSHWGQGTLVTVSS
  binding result: binds

B3: sdAb10 (VHH)
VHH: EVQLVESGGGLVQPGGSLRLSCAASGNTFPARTMSWVRQAPGKGLELVASIGPGRSTIYADSVKGRFTISRDNSKNTLYLQMNSLRAEDTAVYYCAVAYTSGLALRGSFSYWGQGTLVTVSS
  binding result: binds

B4: sdAb12 (VHH)
VHH: EVQLVESGGGLVQPGGSLRLSCAASGNTFPARTMSWVRQAPGKGLELVASIGRGEITYYADSVKGRFTISRDNSKNTLYLQMNSLRAEDTAVYYCAAPAHGSWMSRRPHIYWGQGTLVTVSS
  binding result: binds

B5: sdAb38 (VHH)
VHH: EVQLVESGGGLVQPGGSLRLSCAASGNTSTRHPMSWVRQAPGKGLELVASIGRGEITYYADSVKGRFTISRDNSKNTLYLQMNSLRAEDTAVYYCAVCLRSVFVNCHNFAYWGQGTLVTVSS
  binding result: binds
